Measurements: patent US20180244758A1 (MAPP BIOPHARMACEUTICAL, published 2018)
Numbering of substitutions follows the chain as printed.

T1: EBOV GPCL on cleaved VSV-GP particles (Ebola virus (EBOV), UniProt Q05320 33-676)
T1 sequence: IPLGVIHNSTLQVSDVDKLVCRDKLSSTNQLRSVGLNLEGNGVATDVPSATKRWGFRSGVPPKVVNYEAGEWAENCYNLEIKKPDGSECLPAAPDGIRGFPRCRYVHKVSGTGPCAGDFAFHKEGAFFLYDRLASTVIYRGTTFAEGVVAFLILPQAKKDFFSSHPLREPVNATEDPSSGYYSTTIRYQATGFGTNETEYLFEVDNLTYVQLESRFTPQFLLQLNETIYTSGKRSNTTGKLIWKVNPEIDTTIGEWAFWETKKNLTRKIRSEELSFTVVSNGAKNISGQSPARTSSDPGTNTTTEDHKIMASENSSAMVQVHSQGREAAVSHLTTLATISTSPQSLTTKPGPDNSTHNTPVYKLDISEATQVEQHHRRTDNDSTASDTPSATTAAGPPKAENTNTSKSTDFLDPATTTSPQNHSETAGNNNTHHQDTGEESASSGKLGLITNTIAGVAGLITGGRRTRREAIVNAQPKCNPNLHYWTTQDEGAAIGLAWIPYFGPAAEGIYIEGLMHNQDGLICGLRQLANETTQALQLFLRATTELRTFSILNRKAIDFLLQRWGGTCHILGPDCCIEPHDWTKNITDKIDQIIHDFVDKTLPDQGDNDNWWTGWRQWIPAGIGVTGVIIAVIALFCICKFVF

T2: GP of authentic (wild-type) SUDV (Sudan virus (SUDV), UniProt Q66814 33-676)
T2 sequence: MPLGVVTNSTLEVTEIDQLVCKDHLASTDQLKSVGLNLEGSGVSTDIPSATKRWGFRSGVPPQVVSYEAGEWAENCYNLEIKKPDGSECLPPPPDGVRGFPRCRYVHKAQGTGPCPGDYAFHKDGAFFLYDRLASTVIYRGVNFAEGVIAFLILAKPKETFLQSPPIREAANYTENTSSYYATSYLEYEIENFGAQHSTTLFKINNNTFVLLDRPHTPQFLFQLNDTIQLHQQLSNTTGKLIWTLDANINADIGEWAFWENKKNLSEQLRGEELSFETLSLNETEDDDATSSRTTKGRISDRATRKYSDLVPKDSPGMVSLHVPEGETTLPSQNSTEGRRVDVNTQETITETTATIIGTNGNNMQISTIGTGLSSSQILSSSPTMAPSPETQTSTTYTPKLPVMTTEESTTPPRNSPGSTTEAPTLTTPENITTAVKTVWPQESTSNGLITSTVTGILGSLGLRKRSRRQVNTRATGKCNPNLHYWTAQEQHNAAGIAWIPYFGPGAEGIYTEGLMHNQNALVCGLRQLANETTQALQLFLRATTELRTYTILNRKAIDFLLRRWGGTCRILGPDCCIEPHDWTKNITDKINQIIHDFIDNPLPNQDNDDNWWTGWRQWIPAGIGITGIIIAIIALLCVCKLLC

T3: GP of authentic (wild-type) EBOV (Ebola virus (EBOV), UniProt P87666 33-676)
T3 sequence: T1 sequence with V278A, G282R, S345P, L346P, S390P, P398L, S408G, F411L, T467A, I512T

T4: SUDV GP on rVSV particles (Sudan virus (SUDV), UniProt Q66814 33-676)
T4 sequence: T2 sequence

T5: TAFV GP on VSV pseudotype particles (Tai Forest virus (TAFV), UniProt Q66810 33-676)
T5 sequence: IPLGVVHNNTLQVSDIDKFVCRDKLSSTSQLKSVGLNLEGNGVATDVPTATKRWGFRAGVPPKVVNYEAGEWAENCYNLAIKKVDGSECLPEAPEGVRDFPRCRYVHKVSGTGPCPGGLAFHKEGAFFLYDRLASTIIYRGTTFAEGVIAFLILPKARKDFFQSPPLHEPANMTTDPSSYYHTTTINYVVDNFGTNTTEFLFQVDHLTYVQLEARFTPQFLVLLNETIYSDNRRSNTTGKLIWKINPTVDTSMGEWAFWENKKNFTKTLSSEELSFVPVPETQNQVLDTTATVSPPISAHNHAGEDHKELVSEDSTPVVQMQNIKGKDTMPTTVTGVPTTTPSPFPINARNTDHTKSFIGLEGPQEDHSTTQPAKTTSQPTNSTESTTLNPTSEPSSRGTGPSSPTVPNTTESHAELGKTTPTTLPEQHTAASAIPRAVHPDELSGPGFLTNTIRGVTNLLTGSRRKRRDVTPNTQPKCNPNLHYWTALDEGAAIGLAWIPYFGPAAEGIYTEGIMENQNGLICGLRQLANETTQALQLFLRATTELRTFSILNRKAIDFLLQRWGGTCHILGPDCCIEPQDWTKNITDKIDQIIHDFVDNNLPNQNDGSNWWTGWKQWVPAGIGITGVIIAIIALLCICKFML

B1: mAb PE-87 (antibody, V domains shown)
VH: QVQLVQSGVTLVQPGGSLRVSCAASGFTFSSYAMSWVRQAPGKGLEWVSAISGLGGSTYYADSVKGRFTISRDNSKNTLYLQMNSLRAEDTAVYYCAKDHRVWAAGYHFDYWGQGALVTVSS
VL: DIVLTQSPSTLSASVGDRVTITCRASQSISSWLAWYQQKPGEAPKLLISDASSLESGVPSRFSGSGSGTEFTLTISSLQPDDFATYYCQQYYSSPTFGGGTKVEIK
B2: mAb PE-24 (antibody, V domains shown)
VH: EVQLVESGGGLVQPGGSLRLSCAASGFTFSSYAMSWVRQAPGKGLEWVSEISGLGGSTYYADSAKGRFTISRDNSKSTLYLQMNSLRAEDTAVYYCAKDHRVWAPGYYFDHWGQGTLVTVSS
VL: B1 VL with E42K, S49Y, Y87F, Y92N, S93R
B3: mAb PE-16 (antibody, V domains shown)
VH: QVQLVQSGAEVTKPGASVKVSCKASGYTFTTYYMHWVRQAPGQGLEWVGIINPSGGITRYAQKFQGRVTLTRDTSTTTVYMELSSLRSEDTAVYYCARDRYPVLFATDYGMDVWGQGTTVTVSS
VL: DIVMTQSPATLSLSPGERATLSCRASQSVSGYLAWYQQKPGQAPRLLIYDASNRATGIPARFSGSGSGTDFTLTISSLEPEDFAVYYCQQRSIWPPGVTFGGGTKVEIK
B4: mAb PE-47 (antibody, V domains shown)
VH: EVQLVESGGGLVKPGGSLRLSCAASGFTFSNAWMSWVRQAPGEGLEWVGRIKSKTDGGTIDYAAPVKGRFTISRDDSKNTVYLQMTSLKTEDTAVYYCTTYTEDMQYFDWLLRGGETFDYWGQGTLVTVSS
VL: DIQMTQSPSSLSASVGDRVTITCRASQYISTYLNWYQQKPGKAPKLLIYAAYNLQSGVPSRFSGSGSGTDFTLTISSLQPEDFATYYCQQSYSTPGRYTFGQGTKVEIK
B5: mAb PE-05 (antibody, V domains shown)
VH: QVQLQESGGGLVKPGRSLRLSCTASGFTFGDYAMSWFRQAPGKGLEWVGFLRSKAYGGTAEYAASVKGRFTMSRDDSKSIAYLQMNSLKTEDTAVYFCTRDGFRGSSWGYSYYGMDVWGQGTTVTVSS
VL: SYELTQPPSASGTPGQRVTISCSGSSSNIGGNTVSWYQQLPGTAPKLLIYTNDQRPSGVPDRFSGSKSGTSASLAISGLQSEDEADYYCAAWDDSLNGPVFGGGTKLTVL

biological target: T1, EBOV GPCL on cleaved VSV-GP particles; assay: cell-based or functional assay

Binder	Neutralization (VSV-GP IC50, nM) [nM]
B1	0.2
B2	0.6
B3	5.7
B4	0.08

biological target: T2, GP of authentic (wild-type) SUDV; assay: cell-based or functional assay

Binder	Microneut. WT IC50 [nM]
B1	0.3
B2	0.4
B4	< 0.1

biological target: T3, GP of authentic (wild-type) EBOV; assay: cell-based or functional assay

Binder	Microneut. WT IC50 [nM]	Neut. WT EBOV PRNT50 [nM]
B1	0.3	< 0.05
B2	1	0.4
B3	0.05	< 0.02
B5	7.7	4
B4	0.7	

biological target: T4, SUDV GP on rVSV particles; assay: cell-based or functional assay

Binder	Neutralization (VSV-GP IC50, nM) [nM]
B1	0.3
B2	0.5
B5	34
B4	5.1

biological target: T5, TAFV GP on VSV pseudotype particles; assay: cell-based or functional assay

Binder	Neutralization (VSV-GP IC50, nM) [nM]
B1	1
B2	1.5
B3	4.8
B5	0.8
B4	6.1
